The target in data set [1] is T1, von Willebrand factor full length (Homo sapiens, UniProt P04275 SEQ:764-2813). The experiment in a line: filter; 55% bound at 100 nM. The note with it: tags: Calbiochem 681300. The method, then: (§1) For KD determination, chemically synthesized aptamers were purified using denaturing polyacrylamide gel electrophoresis, 5′end labeled with γ-³²P ATP and were tested for direct binding to full length human vWF (Calbiochem Cat.# 681300, La Jolla, Calif.). An 8 point protein titration was used in the dot blot binding assay (100 nM, 30 nM, 10 nM, 3 nM, 1 nM, 300 pM, 100 pM, 0 pM)) in 1× Dulbecco's PBS containing […] (final volume of 50 uL) for 30 minutes at room temperature. KD values were calculated by fitting the equation y=(max/(1+K/protein))+yint using KaleidaGraph (KaleidaGraph v. 3.51, Synergy Software).

For data set [2], the target named is T1, von Willebrand factor full length. As to the kind of experiment: filter; 47% bound at 100 nM. The note with it: tags: Calbiochem 681300. Here is the method: as §1
The target is the same in data set [3]. The experiment in a line: filter; 33% bound at 100 nM. The note with it: tags: Calbiochem 681300. Here is the method:
as §1

The target is the same in data set [4]. The experiment in a line: filter; 32% bound at 100 nM. The note with it: tags: Calbiochem 681300. Here is the method:
as §1

The target is the same in data set [5]. As to the kind of experiment: filter; 54% bound at 100 nM. The note with it: tags: Calbiochem 681300. Here is the method: as §1
Data set [6] has the same target. The experiment in a line: filter; 42% bound at 100 nM. The note with it: tags: Calbiochem 681300. The method, then:
as §1

Data set [7] has the same target. The experiment in a line: filter; 51% bound at 100 nM. As to conditions: tags: Calbiochem 681300. The method, then: as §1
The target is the same in data set [8]. The experiment in a line: filter; 44% bound at 100 nM. The note with it: tags: Calbiochem 681300. Here is the method: as §1
The target is the same in data set [9]. As to the kind of experiment: filter; 19.2% bound at 100 nM vWF. The note with it: tags: Calbiochem 681300; label: 5'-32P. The method, then: as §1
Data set [10] has the same target. The experiment in a line: flow; range 1.3-370 nM. The note with it: tags: Calbiochem 681300. Here is the method: Aptamer potency to block human vWF binding to lyophilized platelets was assessed by flow cytometric analysis. Titrations of aptamers (0 nM, 0.1 nM to 1000 nM) were pre-incubated briefly with 5 nM of full length human vWF in FACS buffer (PBS plus 0.5% bovine serum albumin) at room temperature in a volume of 50 uL. Another 50 uL containing 5 uL of lyophilized platelets plus 1 uL of 0.1 U/uL of botrocetin in FACS buffer was added to aptamer/vWF. This reaction was allowed to proceed for 15 minutes at 37 degrees C. after which 200 uL of FACS buffer was added. […] The pellets were resuspended in 100 uL of FACS buffer containing a 1:100 dilution of anti-vWF antibody and were incubated at room temperature for 30 minutes. […] The pellets were resuspended in a 1:100 solution of anti-IgG2a-FITC antibody and were incubated in the dark for 30 minutes at room temperature. The entire 100 uL was diluted into 200 uL of FACS buffer and analyzed immediately by flow cytometric analysis in the FACSCAN. […] Mean fluorescent intensity (“MFI”) readings were quantified for each sample analyzed by flow cytometry. […] IC₅₀ values were determined by fitting the percent inhibition of vWF binding to platelets as a function of aptamer concentration to the equation: % inhibition=% inhibitionₘₐₓ/(1+IC₅₀/aptamer conc.)

Data set [11] addresses von Willebrand factor A1 domain (human) (Homo sapiens, UniProt P04275 SEQ:13-246). As to the kind of experiment: filter; 100 nM protein. The text has this:
When a significant positive ratio of binding of RNA in the presence of human or rabbit vWF A1 domain (SEQ ID NOS […] and 6, respectively) versus in the absence of protein was seen, the pools were cloned using the TOPO TA cloning kit (Invitrogen Cat.# 45-0641, Carlsbad, Calif.) according to the manufacturer's instructions. Round 9 and 12 pool templates were cloned and sequenced (185 total sequences), producing 78 unique clones within 3 sequence families. All unique clones were transcribed, desalted, 5-³²P end-labeled, and assayed in a 3-point dot blot screen (no protein target control, 100 nM human vWF A1 domain (SEQ ID NO 5), or 100 nM rabbit vWF A1 domain (SEQ ID NO 6). The data are presented in the third and fourth columns of Table 9 below as the ratio of the fraction of the aptamer bound to the nitrocellulose in the presence of the target protein to the fraction of aptamer bound in the absence of the target protein. Of the three sequence families, members of Family #1 and # 2 and two individual, non-family aptamers, bound to both human vWF domain A1 (SEQ ID NO 5) and rabbit vWF domain A1 (SEQ ID NO 6).

B1: ARC1195 (ssDNA)
DNA: GGCGTGCAGTGCCTTCGGCCGTGCGGTGCCTCCGTCACGCC
modifications: 2'-OMe at 2; 3'-idT
Usually Kd stands for the concentration at which binding is half-saturated. Take B1: in data set [1], the Kd turned out to be 1 nM.

B2: ARC1211 (ssDNA)
DNA: GGCGTGCAGTGCCTTCGGCCGTGCGGTGCCTCCGTCACGCC
modifications: 2'-OMe at 18; 3'-idT
For the molecule B2, in data set [2], the Kd was found to be 2 nM.

B3: ARC1219 (ssDNA)
DNA: GGCGTGCAGTGCCTTCGGCCGTGCGGTGCCTCCGTCACGCC
modifications: 2'-OMe at 26; 3'-idT
B3: the equilibrium dissociation constant (Kd) in [3] came to 3 nM.

B4: ARC1236 (ssDNA)
DNA: GGCGUGCAGTGCCTTCGGCCGTGCGGTGCCTCCGTCACGCC
modifications: 2'-OMe at 3,5,36,38,40,41; 3'-idT
In the case of B4, the Kd in [4] worked out at 3 nM.

B5: ARC1207 (ssDNA)
DNA: GGCGTGCAGTGCCUTCGGCCGTGCGGTGCCTCCGTCACGCC
modifications: 2'-OMe at 14 (mU); 3'-idT
For the molecule B5, the Kd in data set [5] came to 2 nM.

B6: ARC1234 (ssDNA)
DNA: GGCGTGCAGTGCCTTCGGCCGTGCGGTGCCTCCGTCACGCC
modifications: 2'-OMe at 41; 3'-idT
Take B6: the dissociation constant Kd in data set [6] was determined as 2 nM.

B7: ARC1232 (ssDNA)
DNA: GGCGTGCAGTGCCTTCGGCCGTGCGGTGCCTCCGTCACGCC
modifications: 2'-OMe at 39; 3'-idT
As for B7, the Kd in [7] is 1 nM.

B8: ARC1209 (ssDNA)
DNA: GGCGTGCAGTGCCTTCGGCCGTGCGGTGCCTCCGTCACGCC
modifications: 2'-OMe at 16; 3'-idT
Take B8: in data set [8], the Kd was 2 nM.

B9: ARC1530 (mixed)
mixed: CGUGCAGUGCCUUUGGCCGTGCGGTGCCUCCGUCACG
modifications: 2'-OMe/deoxy composite, single PS, 3'-idT
For B9, the Kd in data set [9] was found to be 15 nM.

B10: rRdY minimer SEQ 201 (mixed)
DNA: GGAGCCACACGACATTGGCGCGAGAGCGCATGGCTCC
modifications: ribo purines, deoxy pyrimidines
In general, IC50 refers to the concentration that gives 50% inhibition. Lower therefore signals greater potency. Molecule B10 displayed a half-maximal inhibitory concentration (IC50) in data set [10] of 150 nM.

B11: AMX203.F9 (mixed)
DNA: GGAGCGCACTCAGCCACTGAAGGGTAAGGACGAGGAGGGTATACAGTGTGCGCGTGTATTTCGACCTCTCTGCTAGC
modifications: ribo purines, deoxy pyrimidines
Take B11: in [11], the binding signal was 1.45 ratio to no protein.

The values above are taken from patent publication US20060264369, “Aptamers to von Willebrand Factor and their use as thrombotic disease therapeutics” (published 2006).
